This note sets out measurements from PMC12368520.

As a reminder, the stoichiometry N is a count of units in the complex or per binding partner.

The target in assay [1] is Sb44, synthetic nanobody (sybody) against TGP. The assay can be described thus: SEC; TGP (or Cys mutant) and sybody (or mutant) mixed 1:3 on ice for 20 min; Superdex 200 Increase 10/300 GL; 150 mM NaCl, 20 mM HEPES pH 7.5; absorbance at 493 nm and 280 nm.
Assay [2] has as its target Sb44 V100C. The assay is described as above.
The target in assay [3] is Sb44 V100C. Description: SDS-PAGE (non-reducing); individually purified proteins; Laemmli sample buffer without DTT; 12% gel; Coomassie and in-gel fluorescence; shows disulfide-linked species.

B1: Sb44, synthetic nanobody (sybody) against TGP (VHH)
VHH: QVQLVESGGGLVQAGGSLRLSCAASGFPVGRASMWWYRQAPGKEREWVAAISSYGWVTAYADSVKGRFTISRDNAKNTVYLQMNSLKPEDTAVYYCEVSVGTGYRGQGTQVTVSA
Molecule B1 came in with a stoichiometry N in assay [1] of 2.

B2: Sb44 V100C (VHH)
VHH: QVQLVESGGGLVQAGGSLRLSCAASGFPVGRASMWWYRQAPGKEREWVAAISSYGWVTAYADSVKGRFTISRDNAKNTVYLQMNSLKPEDTAVYYCEVSCGTGYRGQGTQVTVSA
For the molecule B2, the stoichiometry N with Sb44 V100C [2] and in the assay with Sb44 V100C [3] was 2 each time.
